Measurements taken from patent US20210115124A1 (Genentech, published 2021).
Where a chain is given by its changes, count along the chain named. In names and notes the source's numbering stands.

T1: human VEGF (hVEGF) (human, UniProt P15692 181-395)
T1 construct: also called VEGF-A
T1 sequence: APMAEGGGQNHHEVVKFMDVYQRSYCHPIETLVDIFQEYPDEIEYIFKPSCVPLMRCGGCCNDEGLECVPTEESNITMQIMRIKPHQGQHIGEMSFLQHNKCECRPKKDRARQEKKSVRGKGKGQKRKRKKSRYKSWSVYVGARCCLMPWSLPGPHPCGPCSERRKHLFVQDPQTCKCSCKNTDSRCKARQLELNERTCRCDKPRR

B1: G6.31 LC-T97N (Fab, V domains shown)
VH: EVQLVESGGGLVQPGGSLRLSCAASGFTISDYWIHWVRQAPGKGLEWVAGITPAGGYTYYADSVKGRFTISADTSKNTAYLQMNSLRAEDTAVYYCARFVFFLPYAMDYWGQGTLVTVSS
VL: DIQMTQSPSSLSASVGDRVTITCRASQDVSTAVAWYQQKPGKAPKLLIYSASFLYSGVPSRFSGSGSGTDFTLTISSLQPEDFATYYCQQGYGNPFNFGQGTKVEIK
notes: Fab
B2: G6.31 HC-Y58Q (Fab, name in Kabat numbering, V domains shown)
VH: B1 VH with Y59Q
VL: B1 VL with N97T
notes: Fab
B3: G6.31 LC-N94Q (Fab, V domains shown)
VH: B1 VH
VL: B1 VL with N94Q, N97T
notes: Fab
B4: G6.31 HC-S70H (Fab, name in Kabat numbering, V domains shown)
VH: B1 VH with S71H
VL: B1 VL with N97T
notes: Fab
B5: G6.31 HC-I51H (Fab, name in Kabat numbering, V domains shown)
VH: B1 VH with I51H
VL: B1 VL with N97T
notes: Fab
B6: G6.31 HC-A60M (Fab, name in Kabat numbering, V domains shown)
VH: B1 VH with A61M
VL: B1 VL with N97T
notes: Fab
B7: G6.31 HC-T73N (Fab, name in Kabat numbering, V domains shown)
VH: B1 VH with T74N
VL: B1 VL with N97T
notes: Fab
B8: G6.31 LC-Q89N (Fab, V domains shown)
VH: B1 VH
VL: B1 VL with Q89N, N97T
notes: Fab
B9: G6.31 HC-Y59T (Fab, name in Kabat numbering, V domains shown)
VH: B1 VH with Y60T
VL: B1 VL with N97T
notes: Fab
B10: G6.31 LC-Q37A (Fab, V domains shown)
VH: B1 VH
VL: B1 VL with Q37A, N97T
notes: Fab
B11: G6.31 HC-Q81W (Fab, name in Kabat numbering, V domains shown)
VH: B1 VH with Q82W
VL: B1 VL with N97T
notes: Fab
B12: G6.31 LC-Y92E (Fab, V domains shown)
VH: B1 VH
VL: B1 VL with Y92E, N97T
notes: Fab
B13: G6.31 HC-A40E, HC-T57E (Fab, V domains shown)
VH: B1 VH with A40E, T58E
VL: B1 VL with N97T
notes: Fab
B14: G6.31 LC-F83A, LC-N94A, LC-T22D (Fab, name in Kabat numbering, V domains shown)
VH: B1 VH
VL: B1 VL with T22D, F83A, N94A, N97T
notes: Fab
B15: G6.31 HC-A40E, HC-T57E, LC-F83A, LC-N94A, LC-T22D (Fab, name in Kabat numbering, V domains shown)
VH: B1 VH with A40E, T58E
VL: B1 VL with T22D, F83A, N94A, N97T
notes: Fab
B16: G6.31 Y58R.N94A.F83A (Fab, name in Kabat numbering, V domains shown)
VH: B1 VH with Y59R
VL: B1 VL with F83A, N94A, N97T
notes: Fab
B17: G6.31 LC-N94R (Fab, V domains shown)
VH: B1 VH
VL: B1 VL with N94R, N97T
notes: Fab
B18: HCLC4 (Fab, V domains shown)
VH: EEQLVEEGGGLVQPGESLELSCAASGFEISDYWIHWVRQEPGEGLEWVAGITPAGGYEYYADSVEGRFTISADTSENTAYLQMNELRAEDTAVYYCARFVFFLPYAMDYWGQGELVTVSS
VL: B1 VL with R18E, F83A, N94A, N97T
notes: Fab
B19: R19HCLC5 (Fab, V domains shown)
VH: B18 VH with E19R
VL: B1 VL with F83A, N94A, N97T
notes: Fab
B20: R19HCLC2 (Fab, V domains shown)
VH: B18 VH with E19R
VL: B1 VL with R18E, K42E, S76E, F83A, N94A, N97T
notes: Fab
B21: HCLC1 (Fab, V domains shown)
VH: B18 VH
VL: B1 VL with S9E, R18E, F83A, N94A, N97T
notes: Fab
B22: HCLC5 (Fab, V domains shown)
VH: B18 VH
VL: B1 VL with F83A, N94A, N97T
notes: Fab
B23: HCLC2 (Fab, V domains shown)
VH: B18 VH
VL: B1 VL with R18E, K42E, S76E, F83A, N94A, N97T
notes: Fab
B24: R19HCLC4 (Fab, V domains shown)
VH: B18 VH with E19R
VL: B1 VL with R18E, F83A, N94A, N97T
notes: Fab
B25: HCLC3 (Fab, V domains shown)
VH: B18 VH
VL: B1 VL with S9E, R18E, K42E, F83A, N94A, N97T
notes: Fab
B26: HCcombo (Fab, V domains shown)
VH: B18 VH
VL: B1 VL with N97T
notes: Fab
B27: LCcombo1 (G6.31 WT VH with LCcombo1 VL) (Fab, V domains shown)
VH: B1 VH
VL: B1 VL with S9E, R18E, F83A, N94A, N97T
notes: Fab
B28: LCcombo3 (G6.31 WT VH with LCcombo3 VL) (Fab, V domains shown)
VH: B1 VH
VL: B1 VL with S9E, R18E, K42E, F83A, N94A, N97T
notes: Fab
B29: LCcombo4 (G6.31 WT VH with LCcombo4 VL) (Fab, V domains shown)
VH: B1 VH
VL: B1 VL with R18E, F83A, N94A, N97T
notes: Fab
B30: LCcombo2 (G6.31 WT VH with LCcombo2 VL) (Fab, V domains shown)
VH: B1 VH
VL: B1 VL with R18E, K42E, S76E, F83A, N94A, N97T
notes: Fab

Biological target: T1, human VEGF (hVEGF)
Test: SPR single-cycle;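 as to Fold change (relative to G6.31): fab variants injected over hVEGF immobilized on a CM5 chip (Biacore T200), threefold dilution series from 0.02 to 50 nM, kinetics fitted with a 1:1 Langmuir model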
From the text: (§1) To determine the binding affinity of selected Fab variants, SPR measurement with a BIACORE® T200 instrument was used. Briefly, series S sensor chip CM5 was activated with 1-ethyl-3-(3-dimethylaminopropyl) carbodiimide (EDC) and N-hydroxysuccinimide (NHS) reagents according to the supplier's instructions, and human VEGF (hVEGF) was coupled to achieve 50-80 response units (RU), then following by blocking un-reacted groups with 1M ethanolamine.
(§2) Three-fold serial dilutions of Fab in HBS-P buffer (0.01 M HEPES pH 7.4, 0.15 M NaCl, 0.005% surfactant P20) from low (0.02 nM) to high (50 nM) were injected (flow rate: 30 μl/min). The binding responses on hVEGF were corrected by subtracting of RU from a blank flow cell. The sensorgram was recorded and subject to reference and buffer subtraction before evaluating by BIACORE® T200 Evaluation Software (version 2.0). Association rates (kₒₙ) and dissociation rates (koff) were calculated using a simple one-to-one Langmuir binding model. The equilibrium dissociation constant (Kd) was calculated as the ratio koff/kₒₙ.

Fold difference (relative to G6.31) | Kd | koff | kon | Binder
0.8 fold | 1.86 nM | 0.000802 s⁻¹ | 432000 M⁻¹ s⁻¹ | B1
1.5 fold | 1.02 nM | 0.000358 s⁻¹ | 352000 M⁻¹ s⁻¹ | B2
0.3 fold | 4.78 nM | 0.00133 s⁻¹ | 278000 M⁻¹ s⁻¹ | B3
1.5 fold | 1 nM | 0.00066 s⁻¹ | 658000 M⁻¹ s⁻¹ | B4
2.5 fold | 0.62 nM | 0.00152 s⁻¹ | 2.48e+06 M⁻¹ s⁻¹ | B5
0.8 fold | 1.89 nM | 0.000729 s⁻¹ | 386000 M⁻¹ s⁻¹ | B6
1.8 fold | 0.85 nM | 0.000575 s⁻¹ | 678000 M⁻¹ s⁻¹ | B7
3.5 fold | 0.44 nM | 0.000435 s⁻¹ | 991000 M⁻¹ s⁻¹ | B8
0.6 fold | 2.71 nM | 0.000974 s⁻¹ | 360000 M⁻¹ s⁻¹ | B9
1.8 fold | 0.85 nM | 0.000515 s⁻¹ | 603000 M⁻¹ s⁻¹ | B10
3.4 fold | 0.45 nM | 0.000542 s⁻¹ | 1.2e+06 M⁻¹ s⁻¹ | B11

Biological target: T1, human VEGF (hVEGF)
Test: SPR single-cycle;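 as to Fold change (relative to G6.31): fab variants injected over hVEGF immobilized on a CM5 chip (Biacore T200), threefold dilution series from 0.02 to 50 nM, kinetics fitted with a 1:1 Langmuir model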
Remark: another data set of the same source
From the text: as §1, §2

Fold change (relative to G6.31) | Kd | koff | kon | Binder
0.8 fold | 2.07 nM | 0.00103 s⁻¹ | 497000 M⁻¹ s⁻¹ | B12

Biological target: T1, human VEGF (hVEGF)
Test: SPR
From the text: as §1, §2

Kd | koff | kon | Binder
0.272 nM | 0.000804 s⁻¹ | 2.96e+06 M⁻¹ s⁻¹ | B13
0.558 nM | 0.000744 s⁻¹ | 1.33e+06 M⁻¹ s⁻¹ | B14
0.597 nM | 0.000718 s⁻¹ | 1.2e+06 M⁻¹ s⁻¹ | B15

Biological target: T1, human VEGF (hVEGF)
Test: SPR
Remark: another data set of the same source
From the text: as §1, §2

Fold improved (relative to WT) | Kd | koff | kon | Binder
3.9 fold | 0.135 nM | 0.000301 s⁻¹ | 2.22e+06 M⁻¹ s⁻¹ | B16

Biological target: T1, human VEGF (hVEGF)
Test: SPR multiple-cycle
From the text: as §1, §2

Kd | koff | kon | Binder
1.14 nM | 0.000362 s⁻¹ | 318000 M⁻¹ s⁻¹ | B3
2.09 nM | 0.000407 s⁻¹ | 194000 M⁻¹ s⁻¹ | B17

Biological target: T1, human VEGF (hVEGF)
Test: SPR
Remark: another data set of the same source
From the text: as §1, §2

Kd | koff | kon | Binder
0.299 nM | 0.000608 s⁻¹ | 2.03e+06 M⁻¹ s⁻¹ | B18
0.0624 nM | 4.41e-05 s⁻¹ | 707000 M⁻¹ s⁻¹ | B19
 | 4.67e-05 s⁻¹ | 889000 M⁻¹ s⁻¹ | B20
0.442 nM | 0.000607 s⁻¹ | 1.37e+06 M⁻¹ s⁻¹ | B21
0.316 nM | 0.000573 s⁻¹ | 1.81e+06 M⁻¹ s⁻¹ | B22
0.293 nM | 0.000623 s⁻¹ | 2.12e+06 M⁻¹ s⁻¹ | B23
0.169 nM | 4.79e-05 s⁻¹ | 284000 M⁻¹ s⁻¹ | B24
0.33 nM | 0.000608 s⁻¹ | 1.84e+06 M⁻¹ s⁻¹ | B25
0.134 nM | 0.000274 s⁻¹ | 2.05e+06 M⁻¹ s⁻¹ | B26
2.27 nM | 0.00101 s⁻¹ | 447000 M⁻¹ s⁻¹ | B27
1.34 nM | 0.000768 s⁻¹ | 574000 M⁻¹ s⁻¹ | B28
1.75 nM | 0.000808 s⁻¹ | 463000 M⁻¹ s⁻¹ | B29
1.11 nM | 0.000667 s⁻¹ | 599000 M⁻¹ s⁻¹ | B30

Biological target: T1, human VEGF (hVEGF)
Test: SPR
Remark: another data set of the same source
From the text: as §1, §2

Kd | koff | kon | Binder
0.299 nM | 0.000608 s⁻¹ | 2.03e+06 M⁻¹ s⁻¹ | B18
0.062 nM | 4.41e-05 s⁻¹ | 707000 M⁻¹ s⁻¹ | B19
 | 4.67e-05 s⁻¹ | 889000 M⁻¹ s⁻¹ | B20
0.442 nM | 0.000607 s⁻¹ | 1.37e+06 M⁻¹ s⁻¹ | B21
0.316 nM | 0.000573 s⁻¹ | 1.81e+06 M⁻¹ s⁻¹ | B22
0.293 nM | 0.000623 s⁻¹ | 2.12e+06 M⁻¹ s⁻¹ | B23
0.169 nM | 4.79e-05 s⁻¹ | 284000 M⁻¹ s⁻¹ | B24
0.33 nM | 0.000608 s⁻¹ | 1.84e+06 M⁻¹ s⁻¹ | B25
0.134 nM | 0.000274 s⁻¹ | 2.05e+06 M⁻¹ s⁻¹ | B26
